The values below come from article PMC5111854.

As usually defined, the Kd is the equilibrium constant for the complex coming apart. As a reminder, the stoichiometry N is the number of molecules, sites or subunits per partner or assembly.

For assay [1], the target named is Cas5c (Desulfovibrio vulgaris str. Hildenborough). The assay can be described thus: ITC.
Assay [2] addresses Cas7 (Desulfovibrio vulgaris str. Hildenborough). Put plainly: ITC.

Turning to Cas7 (natural protein), in assay [1], the equilibrium dissociation constant (Kd) was found to be 3.8 µM, the dH stood at 5.1 kcal/mol and the stoichiometry N turned out to be 0.59.

In assay [1], Cas8c (natural protein) showed a Kd of 3.9 µM, a dH of 4.8 kcal/mol and a stoichiometry N of 0.57. For the same substance, in assay [2], the equilibrium dissociation constant (Kd) worked out at 6 µM and the dH was determined as 5.2 kcal/mol.
